This note sets out measurements from publication PMC5113954, “Characterization of the Sucrose Phosphate Phosphatase (SPP) Isoforms from Arabidopsis thaliana and Role of the S6PPc Domain in Dimerization” (PLoS ONE, 2016).

One series deals with T1, SPP3b (Arabidopsis thaliana, UniProt Q93XN8).
T1 construct: about 52 kDa subunit, about 90 kDa dimer; cDNA from RIKEN
T1 sequence (Q93XN8 1-423): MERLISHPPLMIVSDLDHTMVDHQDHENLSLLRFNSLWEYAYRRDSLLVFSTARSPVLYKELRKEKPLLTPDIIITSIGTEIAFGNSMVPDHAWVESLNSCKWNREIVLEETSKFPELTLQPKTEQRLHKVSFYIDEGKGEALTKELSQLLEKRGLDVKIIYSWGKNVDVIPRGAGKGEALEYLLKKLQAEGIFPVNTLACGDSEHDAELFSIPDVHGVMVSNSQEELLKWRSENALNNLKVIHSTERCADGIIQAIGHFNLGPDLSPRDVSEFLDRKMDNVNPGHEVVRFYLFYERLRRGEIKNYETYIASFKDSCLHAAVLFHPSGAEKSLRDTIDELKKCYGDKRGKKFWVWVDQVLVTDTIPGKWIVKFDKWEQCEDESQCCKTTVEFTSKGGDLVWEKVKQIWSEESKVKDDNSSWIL
Description: inhibition of Pi release from Suc6P (SnCl2-molybdate). It counts as biochemical.

The next series has as its target T2, S6PP domain of SPP2 (Arabidopsis thaliana, UniProt Q9SJ66).
T2 construct: N-terminal S6PP (HAD) domain only, C-terminal S6PPc domain removed; ends at ...IGHFKL by reverse primer P11; N-terminal His10 tag (pET-19b), E. coli; about 30 kDa monomer
Description: Pi release (SnCl2-molybdate), specific activity. The series is classed as biochemical. As to conditions: 1.25 mM Suc6P; 8 mM MgCl2, pH 7.0, 37 °C.

Another series deals with T3, SynSPP (Synechocystis sp. PCC 6803, UniProt P74325).
T3 construct: gene slr0953; full length, N-terminal His6 tag (pQE-80L), E. coli BL21(DE3)
Description: Pi release (SnCl2-molybdate), specific activity. The series is classed as biochemical. Conditions: 1.25 mM Suc6P; 8 mM MgCl2, pH 7.0, 37 °C.

For series [1], the target named is Chimeric Synechocystis SPP fused at its C-terminus to the S6PPc domain of Arabidopsis SPP2 (SynSPP+S6PPc), His-tagged, from E. coli (Synechocystis sp. PCC 6803 | Arabidopsis thaliana). The experiment in a line: SEC; gel filtration of the purified His-tagged proteins; eluted fractions immunoblotted with anti-His antibodies (Fig 7, S1 Fig).
Series [2] deals with the molecule itself. Description: SEC; Superose 12 10/300 GL, 25 mM HEPES-KOH pH 7.5, 150 mM KCl, 1 mM PMSF, without Mg2+, 0.4 ml/min; fractions followed by A280 and SPP activity; mass from a calibration curve of standards. (In general: In gel filtration, larger molecules generally elute earlier.)
Substrate in series [3]: O=P(O)(O)OC[C@H]1O[C@@](CO)(O[C@H]2O[C@H](CO)[C@@H](O)[C@H](O)[C@H]2O)[C@@H](O)[C@@H]1O
The experiment in a line: Pi release (SnCl2-molybdate), nonlinear regression. Conditions: 25 mM HEPES-KOH pH 7.0, 8 mM MgCl2, 37 °C. It counts as biochemical, Arabidopsis thaliana. The text has this:
Pi release (SnCl2-molybdate), nonlinear regression on SPP3b

Substrate in series [4]: O=P(O)(O)OC[C@H]1O[C@@](CO)(O[C@H]2O[C@H](CO)[C@@H](O)[C@H](O)[C@H]2O)[C@@H](O)[C@@H]1O
Description: Pi release (SnCl2-molybdate), nonlinear regression. As to conditions: 25 mM HEPES-KOH pH 7.0, 8 mM MgCl2, 37 °C. The series is classed as biochemical, Arabidopsis thaliana. From the text:
Pi release (SnCl2-molybdate), nonlinear regression on SPP2
This is another data set of the same source.

Substrate in series [5]: O=P(O)(O)OC[C@H]1O[C@@](CO)(O[C@H]2O[C@H](CO)[C@@H](O)[C@H](O)[C@H]2O)[C@@H](O)[C@@H]1O
Description: Pi release (SnCl2-molybdate), nonlinear regression. Conditions: 25 mM HEPES-KOH pH 7.0, 8 mM MgCl2, 37 °C. The series is classed as biochemical, Arabidopsis thaliana. From the text: Pi release (SnCl2-molybdate), nonlinear regression on SPP3a
The source holds these as a separate data set.

For orientation: Ki means the equilibrium dissociation constant of an inhibitor or competing ligand from its target. The low end stands for a stronger hold on the target, the high end for a looser hold on the target. Usually stoichiometry N stands for a count of units in the complex or per binding partner. As a reminder, the Km is the substrate concentration at which the rate is half of its maximum. As a reminder, the kcat is the number of substrate molecules converted per active site and unit of time at saturation. What is called kcat/Km is the second-order rate constant that governs catalysis at low substrate concentration.

T3 sequence (P74325 entry or part of it): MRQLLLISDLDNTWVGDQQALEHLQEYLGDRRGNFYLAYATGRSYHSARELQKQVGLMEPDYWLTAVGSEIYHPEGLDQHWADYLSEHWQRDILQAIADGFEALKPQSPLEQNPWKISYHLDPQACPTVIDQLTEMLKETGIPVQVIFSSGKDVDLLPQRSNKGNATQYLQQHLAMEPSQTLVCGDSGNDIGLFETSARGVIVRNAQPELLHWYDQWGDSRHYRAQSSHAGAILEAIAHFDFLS

Take `OC[C@H]1O[C@@](CO)(O[C@H]2O[C@H](CO)[C@@H](O)[C@H](O)[C@H]2O)[C@@H](O)[C@@H]1O` [sucrose]: affinity on SPP3b was put at a Ki of 24 mM.
Turning to `O=P(O)(O)OC[C@H]1O[C@@](CO)(O[C@H]2O[C@H](CO)[C@@H](O)[C@H](O)[C@H]2O)[C@@H](O)[C@@H]1O` [Suc6P], the “Pi release (SnCl2-molybdate), specific activity” value at S6PP domain of SPP2 was “with an activity significantly lower than the native protein”; at SynSPP, “The activity of each protein or chimera was determined as described in Materials and Methods”.
“Chimeric Synechocystis SPP fused at its C-terminus to the S6PPc domain of Arabidopsis SPP2 (SynSPP+S6PPc), His-tagged, from E. coli (enzyme)” gave a stoichiometry N in series [1] of 2.

B1: Arabidopsis thaliana sucrose-phosphate phosphatase isoform SPP3b, recombinant Nt-Histag (His10-SPP3b, pET-19b) (enzyme, UniProt Q93XN8 1-423, looked up)
chain: T1 sequence (Q93XN8 1-423)
notes: Sucrose-phosphate phosphatase SPP3b of Arabidopsis thaliana (At3g52340); cDNA from RIKEN, amplified with primers P9 (start codon) and P10 (stop codon); source: E. coli BL21 (DE3), purified (HisTrap HP, Superose 12); not shown: His10, N-terminal, kept
B1: the “stoichiometry N” value in series [2] is 2. Further, in series [3], the Km came out at 3460 ± 710 µM, the kcat is 3.59 s⁻¹ and the kcat/Km was determined as 1040 M⁻¹ s⁻¹.

B2: Arabidopsis thaliana sucrose-phosphate phosphatase isoform SPP2, recombinant Nt-Histag (His10-SPP2, pET-19b) (enzyme, UniProt Q9SJ66 1-422, looked up)
chain: MERLTSPPRLMIVSDLDHTMVDHHDPENLSLLRFNSLWEHAYRHDSLLVFSTGRSPTLYKELRKEKPLLTPDITIMSVGTEITYGNSMVPDHGWVEALNNKWDLGIVKQEASNFPELKLQAETEQRPHKVSFYVEKSKAQEVTKELSQRFLKRGLDVKIIYSGGMDLDILPQGAGKGQALAYLLKKLKTEGKLPVNTLACGDSGNDAELFSIPDVYGVMVSNAQEELLKWHAENAKDNPKVIHAKERCAGGIIQAIGHFKLGPNLSPRDVSDFLEIKVENVNPGHEVVKFFLFYERWRRGEVENSEAYTASLKASVHPGGVFVHPSGTEKSLRDTIDELRKYHGDKQGKKFRVWADQVLATDTTPGTWIVKLDKWEQDGDERRCCTTTVKFTSKEGEGLVWEHVQQTWSKETMVKDDSSWII
notes: Sucrose-phosphate phosphatase SPP2 of Arabidopsis thaliana (At2g35840); cDNA from RIKEN, amplified with primers P5 (start codon) and P6 (stop codon); also called Nt-Histag SPP2; SSP2; source: E. coli BL21 (DE3), purified (HisTrap HP, Superose 12); not shown: His10, N-terminal, kept
As for B2, in series [4], the Km was 730 ± 320 µM, the kcat was found to be 67.8 s⁻¹ and the kcat/Km came to 92500 M⁻¹ s⁻¹. For the same molecule, in series [2], the “stoichiometry N” value is 2.

B3: Arabidopsis thaliana sucrose-phosphate phosphatase isoform SPP3a, recombinant Nt-Histag (His10-SPP3a, pET-19b) (enzyme, UniProt Q93WU4 1-425, looked up)
chain: MDRLEGPPRLILVADLDCTLVDHDDPENNDLLRFNALWEAHYRHDSLLVYCTGRSFSSYSSLRKKRPLLTPDIAVTSVGSEIVYGGGESTVSDVVWTARLDYKWNRDIVVEETLKFPKLEPQPDKSQEEHKVSFFVGREDAVEIMKVLPGILEERGVDVKLVYSNGYAFDVLPRGAGKQGALTYLLDKLDIEGKQPSNTLVCGDSGNDAELFNISDVYGVMVSNSHEELLQWYEENAKDNPKIFHASERCGAGMIEAIQRFNLGPNVSPRDVMDTENFHGESLNPAHEVVQFYLFYERWRCGEVEKSDKYLQNLKSLSSPLGIFVHPSGVEKPIHEWIDEMENLYGDGKEKKFRIWLDNVTSSHISSDTWLAKFVKHELSEGKVRSCSTKVLLSYKEEKQRLTWMHIHQSWLDESSSDDQEKWIF
notes: Sucrose-phosphate phosphatase SPP3a of Arabidopsis thaliana (At3g54270); amplified from rosette leaf cDNA with primers P7 (start codon) and P8 (stop codon); source: E. coli BL21 (DE3), purified (HisTrap HP, Superose 12); not shown: His10, N-terminal, kept
Take B3: the “stoichiometry N” value in series [2] was 2. Moreover, in series [5], the Km was 870 ± 390 µM, the turnover number (kcat) was found to be 0.396 s⁻¹ and the kcat/Km was found to be 454 M⁻¹ s⁻¹.
